The assay concerns the target Neu/V664E TM domain peptide (rat). As to the kind of experiment: SDS-PAGE mobility.

For 1 substance, stoichiometry N results are on record in publication PMC3158823.

The substance Neu/V664E TM domain peptide displayed a stoichiometry N of 2.

By stoichiometry N is commonly meant the number of molecules, sites or subunits per partner or assembly.
